Here are results for two proteins from FireProtDB (doi:10.1006/jmbi.1995.0174).

Where “and” joins values, the source holds several entries; their conditions need not be identical. Equal entries are not always repeated.

B1: Serine protease 1 wild type, P00760 (protein)
chain: MKTFIFLALLGAAVAFPVDDDDKIVGGYTCGANTVPYQVSLNSGYHFCGGSLINSQWVVSAAHCYKSGIQVRLGEDNINVVEGNEQFISASKSIVHPSYNSNTLNNDIMLIKLKSAASLNSRVASISLPTSCASAGTQCLISGWGNTKSSGTSYPDVLKCLKAPILSDSSCKSAYPGQITSNMFCAGYLEGGKDSCQGDSGGPVVCSGKLQGIVSWGSGCAQKNKPGVYTKVCNYVSWIKQTIASN
B2: Anionic trypsin wild type, Q29463 (protein)
chain: MHPLLILAFVGAAVAFPSDDDDKIVGGYTCAENSVPYQVSLNAGYHFCGGSLINDQWVVSAAHCYQYHIQVRLGEYNIDVLEGGEQFIDASKIIRHPKYSSWTLDNDILLIKLSTPAVINARVSTLLLPSACASAGTECLISGWGNTLSSGVNYPDLLQCLVAPLLSHADCEASYPGQITNNMICAGFLEGGKDSCQGDSGGPVACNGQLQGIVSWGYGCAQKGKPGVYTKVCNYVDWIQETIAANS

For one series the following is noted: Bos taurus; pH 4.2; Thermal; Fluorescence; acetate 30 mM; reversible: yes; whole UniProt chain shown.
Take B1: the Tm was 66 °C and 65 °C; the “heat capacity change of unfolding” value is 3.09 kcal/mol/K and 2.64 kcal/mol/K; the “unfolding enthalpy (van 't Hoff)” value was 150 kcal/mol and 164 kcal/mol.

The series is the same for the next values; noted with them: Bos taurus; pH 7.5; 25 °C; GdnHCl; Fluorescence; Tris-HCl 0.1 M; CaCl2 20 mM; reversible: no; whole UniProt chain shown.
B1: the denaturant m value is 4.22 kcal/mol/M, the “denaturant midpoint (higher = more stable)” value (shortened to “denaturant midpoint”) was 2.5 M and the unfolding free energy stood at 10.6 kcal/mol.

The series is the same for the next values; noted with them: Bos taurus; pH 8.3; 25 °C; GdnHCl; Fluorescence; Tris-HCl 0.1 M; CaCl2 20 mM; reversible: no; whole UniProt chain shown.
For the protein B1, the denaturant m value is 4.1 kcal/mol/M, the “denaturant midpoint” value is 2.27 M and the unfolding free energy was determined as 9.3 kcal/mol.

Staying with this series, now noted: Bos taurus; pH 5.8; 25 °C; GdnHCl; Fluorescence; MES 30 mM; CaCl2 20 mM; reversible: yes; whole UniProt chain shown.
As to B2, the denaturant m value was found to be 5.74 kcal/mol/M, the “denaturant midpoint” value stood at 2.19 M and the unfolding free energy stood at 12.5 kcal/mol.
